Data set [1] concerns the molecule itself. Briefly: multiangle light scattering.
Data set [2] has as its target MEF2A (2-95), MADS-box/MEF2 domain (Homo sapiens, UniProt Q02078 2-95). As to the kind of experiment: X-ray crystallography.

B1: MADS-box/MEF2 domain of human MEF2A (residues 2-95) (domain or fragment, UniProt Q02078 2-95, looked up)
chain: GRKKIQITRIMDERNRQVTFTKRKFGLMKKAYELSVLCDCEIALIIFNSSNKLFQYASTDMDKVLLKYTEYNEPHESRTNSDIVEALNKKEHRG
B1: the “stoichiometry N” value in data set [1] was determined as 2.

B2: MEF2 site 14mer (crystal) (dsDNA)
DNA 1: AACTATTTATAAGA
DNA 2: TTCTTATAAATAGT
As for B2, the binding result in data set [2] is given as “binds”.

By stoichiometry N is commonly meant a count of units in the complex or per binding partner.
